These results are taken from patent US20230235054A1 (BIOATLA, published 2023).

Where a chain is given by its changes, count along the chain named.

T1: human Nectin-4 on cells (human, UniProt Q96NY8 32-510)
T1 construct: whole, on cells; also called HEK293 cells expressing human Nectin-4; T47D cells that express human Nectin-4
T1 sequence (looked up): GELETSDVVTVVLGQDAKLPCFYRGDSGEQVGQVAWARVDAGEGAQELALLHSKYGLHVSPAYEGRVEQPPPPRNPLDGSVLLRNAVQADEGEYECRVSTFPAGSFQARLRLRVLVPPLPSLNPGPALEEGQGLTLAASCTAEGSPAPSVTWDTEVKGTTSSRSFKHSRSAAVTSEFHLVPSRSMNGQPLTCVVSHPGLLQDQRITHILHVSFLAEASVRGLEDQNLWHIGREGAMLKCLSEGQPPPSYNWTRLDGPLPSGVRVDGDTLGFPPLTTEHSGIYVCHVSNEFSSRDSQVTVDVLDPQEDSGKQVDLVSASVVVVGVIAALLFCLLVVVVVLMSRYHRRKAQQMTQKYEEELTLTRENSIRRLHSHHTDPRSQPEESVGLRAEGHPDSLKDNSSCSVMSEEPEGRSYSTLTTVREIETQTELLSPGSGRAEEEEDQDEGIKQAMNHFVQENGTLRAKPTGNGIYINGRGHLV

T2: huNectin4-His (human, UniProt Q96NY8 32-349)
T2 construct: Immobilized on the SPR chip; also called humanNectin4; human Nectin4; not shown: His tag
T2 sequence (looked up): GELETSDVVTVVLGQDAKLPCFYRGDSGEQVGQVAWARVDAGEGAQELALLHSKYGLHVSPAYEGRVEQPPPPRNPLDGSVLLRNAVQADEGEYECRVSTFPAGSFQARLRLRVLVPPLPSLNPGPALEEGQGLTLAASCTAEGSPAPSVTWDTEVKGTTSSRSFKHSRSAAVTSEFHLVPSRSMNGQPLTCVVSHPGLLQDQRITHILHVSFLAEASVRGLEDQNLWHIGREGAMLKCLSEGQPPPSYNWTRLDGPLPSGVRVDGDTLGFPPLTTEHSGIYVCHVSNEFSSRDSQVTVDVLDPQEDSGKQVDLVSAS

T3: cynoNectin4-mFc (cyno, UniProt A0A2K5WES1 32-349)
T3 construct: Immobilized on the SPR chip; also called cyanoNectin4; not shown: mFc (mouse Fc)
T3 sequence: T2 sequence (looked up) with V39A, I230V

T4: cyno Nectin-4 on cells (cyno, UniProt A0A2K5WES1 32-510)
T4 construct: whole, on cells; also called HEK293 cells expressing cyno Nectin-4; cyno Nectin-4 cells
T4 sequence: T1 sequence (looked up) with V39A, I230V, A437T

B1: BAP-143-wildtype (antibody, V domains shown)
VH: EVQLVESGGGLVQPGGSLRLSCAASGFTFSSYNMNWVRQAPGKGLEWVSYISSSSSTIYYADSVKGRFTISRDNAKNSLSLQMNSLRDEDTAVYYCARAYYYGMDVWGQGTTVTVSS
VL: DIQMTQSPSSVSASVGDRVTITCRASQGISGWLAWYQQKPGKAPKFLIYAASTLQSGVPSRFSGSGSGTDFTLTISSLQPEDFATYYCQQANSFPPTFGGGTKVEIK
notes: 150 kDa used in SPR; also called BAP143-00-00; benchmark (BM)
B2: BAP-143-00-01 (antibody, V domains shown)
VH: B1 VH
VL: B1 VL with L33E
notes: Used as a conjugate with a linker payload (CAB ADC)
B3: BAP-143-00-05 (antibody, V domains shown)
VH: B1 VH with R98E
VL: B1 VL
notes: as for B2
B4: BAP-143-00-06 (antibody, V domains shown)
VH: B1 VH with M104D
VL: B1 VL
notes: as for B2
B5: BAP-143-00-02 (antibody, V domains shown)
VH: B1 VH
VL: B1 VL with F94E
notes: as for B2
B6: BAP-143-00-04 (antibody, V domains shown)
VH: B1 VH with M34D
VL: B1 VL
notes: as for B2
B7: BAP-143-00-03 (antibody, V domains shown)
VH: B1 VH
VL: B1 VL with P96D
notes: as for B2
B8: BAP-143-06-24-16 (antibody, V domains shown)
VH: EVQLVQSGAEVKKPGATVKISCKVSGFTFSSYNMNWIRQSPSRGLEWLGYISSSSSTIYYADSVKGRFTISRDNSKNTLYLQMNSLRAEDTAVYYCARAYYYGDDVWGQGTLVTVSS
VL: B1 VL with R24H
notes: as for B2
B9: BAP-143-06-33-03 (antibody, V domains shown)
VH: QVQLVQSGAEVKKPGASVKVSCKASGFTFSSYNMNWVRQARGQRLEWIGYISSSSSTIYYADSVKGRFTISRDNSKNTLYLQMNSLRAEDTAVYYCARAYYYGMDKWGQGTLVTVSS
VL: B1 VL with F94E
notes: as for B2
B10: BAP-143-07-03-12 (antibody, V domains shown)
VH: B1 VH with V106K
VL: B1 VL with L33E
notes: as for B2
B11: BAP-143-06-33-16 (antibody, V domains shown)
VH: B8 VH
VL: B1 VL with L33E
notes: as for B2

One assay concerns the target T1, human Nectin-4 on cells. Description: FACS, T47D cells. (In general: In flow cytometry, cells or beads pass a laser one at a time.)
As to B1, the “Ratio (pH 7.4/6.0) of EC50” value turned out to be 0.9.
The same measure, in the same setting: as for B2, the figure is 6.7; as for B3, 2.4; as for B4, 2.6.
B5: the “Ratio (pH 7.4/6.0) of EC50” value is 2.9.
On the same count and under the same terms, then B6, with 2.1; and B7, with 3.6.

The target in a further assay is T1, human Nectin-4 on cells. Put plainly: FACS, T47D cells. The source holds these as a separate data set.
Consider B1, for which the “Ratio (pH 7.4/6.0) of EC50” value stood at 1.2.
On to B8, for which the “Ratio (pH 7.4/6.0) of EC50” value was determined as 2.9.
Same read-out and setting: then B9, with 14.8; and B2, with 6.2.
B10: the “Ratio (pH 7.4/6.0) of EC50” value is 4.5.
Regarding B11, the “Ratio (pH 7.4/6.0) of EC50” value turned out to be 3.4.

The target in a further assay is T1, human Nectin-4 on cells. Description: cell-based or functional assay.
On to B2, for which the “Ratio (pH 7.4/6.0) of cell killing EC50” value was determined as 2.1.
Same read-out and setting: as for B3, the figure is 2.
Still for that read-out and setting: as for B4, the figure is 1.2; as for B5, 1.7.
Still for that read-out and setting: as for B6, the figure is 2.7; as for B7, 2.6.

The target of a further assay is T2, huNectin4-His. Description: SPR, huNectin4-His immobilized, pH 7.4. As for the experimental part:
(§1) Binding kinetics of anti-Nectin4 antibodies were measured by surface plasmon resonance using a SPR2/4 instrument (Sierra Sensors, Hamburg, Germany) and flat amine sensor chips. The SPR sensor contained four flow cells (FC1-FC4), each of which was addressed individually or in groups. huNectin4-His was immobilized in FC2, and cynoNectin4-mFc in FC4. No protein was immobilized in FC1 and FC3 which were used as control surfaces for FC2 and FC4, respectively.
(§2) All injections were done at a flow rate of 25 μL/min at 25° C. The sensor surface was activated with 1-ethyl-3-(3-dimethylaminopropyl)-carbodiimide (EDC) and N-hydroxysuccinimide (NHS) (200 mM/50 mM) for 480 seconds. HuNectin4-His (2 μg/mL in 10 mM NaAc, pH4.5) was injected for 480s and the surface was inactivated by injecting 1M ethanolamine-HCl for 480s. CynoNectin4 was immobilized using the same conditions as described for huNectin4-His, except that the cynoNectin4 was diluted into 10 mM NaAc buffer having pH 5.0. The control surface was activated and deactivated using the same conditions, but without injecting protein. PBST buffer (PBS pH 7.4 with 0.05% TWEEN20™) was used as running buffer for the surface preparation. The running solution was switched to PBST with 30 mM sodium bicarbonate with the pH adjusted as indicated in the figures before the analyte injections. The instrument was equilibrated with the running solution for one hour before the first analyte injection.
(§3) The off-rate was measured for 360s. The chip surface was regenerated after each cycle of interaction analysis by injecting 6 μL of 10 mM glycine (pH 2.0). Flow cells 1 and 3 without immobilized protein were used as control surfaces for reference subtraction.
Background: In SPR one partner is held on a chip, and binding of the other changes the refractive index at the surface.
In the case of B1, binding was put at a Kd of 0.943 nM.
With B2, the affinity, expressed as Kd, was 3.89 nM; the koff – broadly, a measure of how fast the partners let go of each other – was 0.00267 s⁻¹; the kon – broadly, the second-order rate constant of association – is 686000 M⁻¹ s⁻¹.
On the same counts, the results for B3 are 5.09 nM, 0.0062 s⁻¹ and 1.22e+06 M⁻¹ s⁻¹.
On the same counts, the results for B4 are 0.406 nM, 0.00143 s⁻¹ and 3.52e+06 M⁻¹ s⁻¹.
On the same counts, the results for B6 are 1.42 nM, 0.00525 s⁻¹ and 3.71e+06 M⁻¹ s⁻¹.
In the case of B7, binding was put at a Kd of 2.45 nM, the koff was determined as 0.0032 s⁻¹ and the kon stood at 1.31e+06 M⁻¹ s⁻¹.

For a further assay, the target named is T3, cynoNectin4-mFc. Description: SPR, cynoNectin4-mFc immobilized, pH 6.5. As for the experimental part: as §1, §2, §3
With B1, the Kd (commonly the constant that tells how readily two partners part at equilibrium) worked out at 0.52 nM.
For B2, the affinity, expressed as Kd, was 2.94 nM; the dissociation rate constant (koff) was found to be 0.00134 s⁻¹; the kon stood at 457000 M⁻¹ s⁻¹.
On the same counts, the results for B3 are 3.96 nM, 0.00237 s⁻¹ and 599000 M⁻¹ s⁻¹.
B4 came in with a Kd of 0.398 nM, a koff of 0.000769 s⁻¹ and a kon of 1.93e+06 M⁻¹ s⁻¹.
With B5, binding was characterised by a dissociation constant (Kd) of 4.71 nM, the koff came out at 0.00179 s⁻¹ and the on-rate constant (kon) came out at 380000 M⁻¹ s⁻¹.
On the same counts, the results for B6 are 1.12 nM, 0.0018 s⁻¹ and 1.6e+06 M⁻¹ s⁻¹.
On to B7, for which the Kd turned out to be 1.86 nM, the koff turned out to be 0.00124 s⁻¹ and the kon was found to be 668000 M⁻¹ s⁻¹.

The target in another assay is T4, cyno Nectin-4 on cells. Description: FACS, HEK293 cells expressing cyno Nectin-4.
For B1, the “Ratio (pH 7.4/6.0) of EC50” value was found to be 1.7.
Still for that read-out and setting: then B2, with 4.1; and B3, with 2.5; and B4, with 3.2.
Same read-out and setting: as for B5, the figure is 2.3; as for B6, 2.1.
The same measure, in the same setting: then B7, with 3.6.
